Reference: the supplement of paper PMC9170038

Tested on: MS2 coat protein
Assay: apparent KD of MS2 coat protein; designed switch direction (-1 OFF switch, 1 ON switch): 1; higher = weaker reporter binding
How it was run: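 Normalised cluster fluorescence was curve-fitted, and each design's median over clusters is its apparent KD. Before this, SNAP-549-labelled MS2 coat protein was titrated from 0.7 or 1.5 nM, doubling to 3 µM, over RNA switches transcribed on Illumina chips by stalled E. coli RNA polymerase. Titrations had no input, 200 uM small-molecule ligand, or an oligonucleotide input, and steps lasted 0.8–1.5 h (lowest) to 10–20 min (highest).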

[1] = Eterna round: R95, input ligand: FMN 200 uM
[2] = Eterna round: R95, input ligand: microRNA oligo, concentration not stated
[3] = Eterna round: R95, input ligand: none
[4] = input ligand: microRNA oligo, concentration not stated

## GAGAAGAGGGACAAGGAUAUGUCAGGAGAGACAUGAGGAUCACCCAUGUAGAGGUUGGAGGAGAGACAGAAGGUGUAGGGAGCGA [JR_SS2_Sub012] (puzzle: Same State 2)
[1]
  apparent KD of MS2 coat protein: 50.1 nM
[2]
  apparent KD of MS2 coat protein: 57.2 nM
[3]
  apparent KD of MS2 coat protein: 98 nM

## AUUAAACAUGAGGAUCACCCAUGUCAACAAAGUCGAGGAUAUGGGCAUAUUAUCUUAUUACCAGAAGGCGAAUAAU [salish99_ss1_r3_087] (puzzle: Same State 1)
[2]
  apparent KD of MS2 coat protein: 326 nM

## AUAAAACAUGAGGAUCACCCAUGUCAUCAAAGUCGAGGAUAUGGGCAAAUAAAAUAAGAACCAGAAGGCGAAUAAU [salish99_ss1_r3_043] (puzzle: Same State 1)
[1]
  apparent KD of MS2 coat protein: 106 nM
[2]
  apparent KD of MS2 coat protein: 298 nM
[3]
  apparent KD of MS2 coat protein: 501 nM

## UUAAAACAUGAGGAUCACCCAUGUAAUAAUAUGGGAGGAUAUCAGAUUUAAUUUAAUUUAUGAGAAGGCCUAAAUG [Mat - Same State 1 - Mod of Eli - D60] (puzzle: Same State 1)
[1]
  apparent KD of MS2 coat protein: 65.4 nM
[2]
  apparent KD of MS2 coat protein: 407 nM
[3]
  apparent KD of MS2 coat protein: 1150 nM

## CCAUGGUAACAUGAGGAUCACCCAUGUACAAGCUUUUUGCUCGGUUUUAUCCCGGGCCCGGAUUACACGGGCCCGGG [Initial Design] (puzzle: Sensor for hsa-mir-208a version 2)
[1]
  apparent KD of MS2 coat protein: 41.4 nM
[2]
  apparent KD of MS2 coat protein: 50.7 nM
[3]
  apparent KD of MS2 coat protein: 33.6 nM

## AGCUUUUAAUUAGGAUAUGGUCACAUGAGGAUCACCCAUGUAACGAUGAUACGAUGUGGUCAAGACUAGAAGGGAUCGCUAACA [SameState NG2 #70] (Eterna round: R96, puzzle: Same State NG 2)
Input ligand: FMN 200 uM
  apparent KD of MS2 coat protein: 150 nM
[4]
  apparent KD of MS2 coat protein: 82.9 nM
Input ligand: none
  apparent KD of MS2 coat protein: 113 nM

## GCAGGACAUGAGGAUCACCCAUGUUCCAAAUAUUGAGGAUAUGGAUACGGUAUAUCCGAACCAGAAGGCAACCUGC [SS1 Teenbexe 21] (puzzle: Same State 1)
[1]
  apparent KD of MS2 coat protein: 25.3 nM
[2]
  apparent KD of MS2 coat protein: 22.1 nM
[3]
  apparent KD of MS2 coat protein: 23.3 nM

## UUAUCUCAGACAUGAGGAUCACCCAUGUUUUUUUGUCUUAGACAGGAUAUAGUAGUAUCGAAAUACUAGAAGGGUCAUUUUAUU [JR_SSNG3_Sub023] (Eterna round: R96, puzzle: Same State NG 3)
Input ligand: FMN 200 uM
  apparent KD of MS2 coat protein: 18.4 nM
[4]
  apparent KD of MS2 coat protein: 23.5 nM
Input ligand: none
  apparent KD of MS2 coat protein: 28.9 nM

## CUCUCACAUGAGGAUCACCCAUGUCCACCUCCGUGAGGAUAUAGAUAAUAAAUACAUUUACUAGAAGGCGCAUCCC [Bay] (puzzle: Same State 1)
[2]
  apparent KD of MS2 coat protein: 263 nM

## UAGAACAAGCUUUUUGCCCGUCUUAUAUAACAUGAGGAUCACCCAUGUAAGGUGAAAGUUAGAGAGUGGAGGAAGAA [JR_SHM208A_Sub053] (puzzle: Sensor for hsa-mir-208a)
[1]
  apparent KD of MS2 coat protein: 95.3 nM
[2]
  apparent KD of MS2 coat protein: 272 nM
[3]
  apparent KD of MS2 coat protein: 123 nM

## AUUGCUUACGCAGGAUAUGAUGCGAAAAUUGCGUCAGAAGGGUGAAAAGAAUCGUUGCAAGAAGACAUGAGGAUCACCCAUGUC [SameState NG1 #94] (Eterna round: R96, puzzle: Same State NG 1)
Input ligand: FMN 200 uM
  apparent KD of MS2 coat protein: 29.9 nM
[4]
  apparent KD of MS2 coat protein: 28.2 nM
Input ligand: none
  apparent KD of MS2 coat protein: 59.8 nM

## AUGAAGAAUUAAGGAUAUUGAUUACAUAUGUUUAACAUGAGGAUCACCCAUGUGGGUUGCGGUAUCGAGAAGGUAAAAUAAUAG [Mat - same State NG 2 - JL mod - D85] (Eterna round: R96, puzzle: Same State NG 2)
Input ligand: FMN 200 uM
  apparent KD of MS2 coat protein: 187 nM
[4]
  apparent KD of MS2 coat protein: 123 nM
Input ligand: none
  apparent KD of MS2 coat protein: 158 nM

## GCGCACGAUCACAGUAACAUGAGGAUCACCCAUGUGUUACCGGAGGAUAUGCAAGCCCAUGCAGCGCAGAAGGCCGGGAACGUA [Eternabot solution 24] (Eterna round: R96, puzzle: Same State NG 3)
Input ligand: FMN 200 uM
  apparent KD of MS2 coat protein: 151 nM
[4]
  apparent KD of MS2 coat protein: 131 nM
Input ligand: none
  apparent KD of MS2 coat protein: 147 nM

## GCUAGAAUAAAUGCCUACAUGAGGAUCACCCAUGUAUGUAGGCAGGAUAUCGUAUGCAAAGCAUACGAGAAGGGCCUUACUAGC [Mat - Same State NG 3 - JL Mod - D30] (Eterna round: R96, puzzle: Same State NG 3)
Input ligand: FMN 200 uM
  apparent KD of MS2 coat protein: 22.7 nM
[4]
  apparent KD of MS2 coat protein: 55.4 nM
Input ligand: none
  apparent KD of MS2 coat protein: 85.2 nM

## AUCCGGAGAAAACAAAUCCGACAUGAGGAUCACCCAUGUACACAGGAUAUCAGCCCGUUGAGGGCUGAGAAGGGUGGCCGAGUG [Cexeati] (Eterna round: R96, puzzle: Same State NG 3)
Input ligand: FMN 200 uM
  apparent KD of MS2 coat protein: 267 nM
[4]
  apparent KD of MS2 coat protein: 72.7 nM
Input ligand: none
  apparent KD of MS2 coat protein: 130 nM
